Test results reported in patent publication US20240010723A1 (IBEX BIOSCIENCES, published 2024).

T1: Murine CD147 (Uniprot P18572), recombinant protein (murine (mouse), UniProt P18572 22-325, limits assumed)
T1 construct: also called mCD147; mouse CD147
T1 sequence: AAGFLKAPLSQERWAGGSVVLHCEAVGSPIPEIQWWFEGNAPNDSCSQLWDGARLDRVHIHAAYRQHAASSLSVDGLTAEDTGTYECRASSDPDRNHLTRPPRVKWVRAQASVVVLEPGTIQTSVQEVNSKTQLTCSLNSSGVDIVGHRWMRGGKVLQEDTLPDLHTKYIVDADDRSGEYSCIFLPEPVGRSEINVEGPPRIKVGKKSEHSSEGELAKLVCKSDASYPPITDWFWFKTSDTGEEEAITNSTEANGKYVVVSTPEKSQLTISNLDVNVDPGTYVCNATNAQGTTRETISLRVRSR

T2: Human CD147 (Uniprot P35613), recombinant protein (human, UniProt P35613 138-325)
T2 construct: also called recombinant CD147; CD147 protein
T2 sequence: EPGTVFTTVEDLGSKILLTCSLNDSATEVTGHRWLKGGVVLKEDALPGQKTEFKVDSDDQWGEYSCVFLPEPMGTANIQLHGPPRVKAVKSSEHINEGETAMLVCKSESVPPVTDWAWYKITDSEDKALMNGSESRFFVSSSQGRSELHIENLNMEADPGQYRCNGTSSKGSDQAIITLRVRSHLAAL

T3: Human CD147 (Uniprot P35613), recombinant protein (UniProt P35613 138-325)
T3 chain: T2 sequence

B1: Ibx-77 (dimer of Ibx-14) (VHH, not shown: small tags and cut ends)
chain: QVQLVESGGGLVQAGDSLTLSCAASGRSLSSNAMGWFRQAPGKEREFVSGTTWHAGTQYYAYAADSVKGRFTTSRDNANTVSLQMKRLKPEDTAVYYCAAAVSGPGYDSWGQGTQVTVSSEPKIPQPQPKPQPQPQPQPQPKPQPEPQVQLVESGGGLVQAGDSLTLSCAASGRSLSSNAMGWFRQAPGKEREFVSGTTWHAGTQYYAYAADSVKGRFTTSRDNANTVSLQMKRLKPEDTAVYYCAAAVSGPGYDSWGQGTQVTVSS
notes: Tandem bivalent VhH without Fc
B2: Ibx-75 (dimer of Ibx-12) (VHH)
chain: QVRLVESGGGLVQAGDSLRLSCQASGGTFTTYAMGWFRQAPGQEREFVSATTWSTGTSYYAYAADSVKGRFTTSRDNDNTVTLTMKRLKPDDTAVYYCSADPDGSDWAHSARQLRYWGQGTQVTVSSEPKIPQPQPKPQPQPQPQPQPKPQPEPQVRLVESGGGLVQAGDSLRLSCQASGGTFTTYAMGWFRQAPGQEREFVSATTWSTGTSYYAYAADSVKGRFTTSRDNDNTVTLTMKRLKPDDTAVYYCSADPDGSDWAHSARQLRYWGQGTQVTVSS
notes: Tandem bivalent VhH without Fc; also called tandem bivalent Ibx-75; not shown: Flag tag, since detection was with anti-flag
B3: Ibx-74 (dimer of Ibx-11) (VHH)
chain: QVRLEESGGGLVQAGGSLRLSCAASGLAFSIYGMGWFRQAPGKEREFVSVVDNTGSTTLYADSVKGRFTISRDNAKNTVYLQMSSLEPEDTAVYYCGAGPKNYLGSHEYAYWGQGTQVTVSSEPKIPQPQPKPQPQPQPQPQPKPQPEPQVRLEESGGGLVQAGGSLRLSCAASGLAFSIYGMGWFRQAPGKEREFVSVVDNTGSTTLYADSVKGRFTISRDNAKNTVYLQMSSLEPEDTAVYYCGAGPKNYLGSHEYAYWGQGTQVTVSS
notes: Tandem bivalent VhH
B4: Ibx-76 (dimer of Ibx-13) (VHH)
chain: QVQLVESGGGLVQPGGSLRLSCTASEDTFSTYAIGWFRQAPGQGREFVAGITANGIATRYNDSLKDRFTISRDNAKNTVYLQMNSLQPEDTAVYSCGADTRRFSLPSTVHEIDYWGQGTQVTVSSEPKIPQPQPKPQPQPQPQPQPKPQPEPQVQLVESGGGLVQPGGSLRLSCTASEDTFSTYAIGWFRQAPGQGREFVAGITANGIATRYNDSLKDRFTISRDNAKNTVYLQMNSLQPEDTAVYSCGADTRRFSLPSTVHEIDYWGQGTQVTVSS
notes: Tandem bivalent VhH without Fc; not shown: Flag tag, since detection was with anti-flag

Key:
[1] = target: T1, Murine CD147 (Uniprot P18572), …; test: ELISA, 100 ng murine CD147 coated, anti-flag detection
Description: For the ELISA, 100 ng of murine CD147 was coated onto Nunc polysorb plates overnight in 1× coating buffer. The wells were washed once with TBST (0.01% tween 20) and then blocked for 1 hour using 1× fishgel in TBST at room temperature (RT). Ibx-11, Ibx-13, Ibx-75, Ibx-76, Ibx-77, and anti-HIS antibody was incubated at 0.01-100 ng/well in 100 μl for 1 hour at RT before being washed 3× for 5 min each wash. The wells were incubated with anti-human for Ibx-11 & Ibx-13 treated wells and with anti-flag for Ibx-77, Ibx-75, Ibx-76 treated wells at 1:1000 dilution for 1 hour RT, and then washed 3× for 5 min each wash. The wells were incubated with 100p/Well of TMBE for 30 minutes and the reaction was stopped with 100p/Well of 2N sulphuric acid. Optical Density (OD) was measured using Biotek synergy 4 instrument for quantification.

[2] = target: T2, Human CD147 (Uniprot P35613), …; test: SPR, CD147 injected as analyte at 0-900 nM, kinetic model
Description: (§1) For this assay, CD147 was injected in HBS-EP buffer pH7.4 at concentrations ranging from 0 nM to 900 nM at 10 μl/min for 600 Seconds. Duplicate CD147 injections were carried out for 0, 9.22, […], 23.04, 57.6, 144, 360, 900 nM (a 2.5-fold dilution series). The chip surface was regenerated using 10 mM Glycine pH 2.0 @ 10 μl/min for 180 sec.
(§2) One technical replicate of 0 nm & 23.04 nM was excluded from analysis due to sudden air spikes and DIPs during analyte injection. Data were analyzed in Q-Dat software provided by instrument manufacturer. A steady state 1:1 fitting model (FIG. 4) was used for initial steady state binding analysis, and a simple Kd/Ka kinetic model (FIG. 5) was used to estimate KD.

[3] = target: T2, Human CD147 (Uniprot P35613), …; test: SPR, CD147 injected as analyte at 0-900 nM, steady state 1:1 fit
Description: as §1, §2

[4] = target: T3, Human CD147 (Uniprot P35613), …; test: SPR; kinetic model; Ibx-77 injected over immobilized CD147
[5] = target: T3, Human CD147 (Uniprot P35613), …; test: SPR; steady state 1:1 fit; Ibx-77 injected over immobilized CD147
[6] = target: T3, Human CD147 (Uniprot P35613), …; test: SPR
[7] = target: T2, Human CD147 (Uniprot P35613), …; test: SPR sensorgram, partly purified sample injected on a sensor chip; the chip's ligand is not stated
Description: Approximately 45 μl of Ibx-74 and Ibx-75 at various stages of purification were provided; 35 μl of each sample was injected on a sensor chip and sensograms were collected. The flow rate was 10 μ/minute, and the chip was regenerated with 10 mM Glycine at pH 1.5.

binding result [1] | Kd [2] [nM] | koff [2] [s⁻¹] | kon [2] [M⁻¹ s⁻¹] | Kd [3] [nM] | Kd [4] [nM] | Kd [5] [nM] | Kd [6] [nM] | koff [7] [s⁻¹] | Binder
no binding (tested: 0.01-100 ng/well) | 36.1 | 0.000489 | 13300 | 138 | 0.335 | 10.8 | – | – | B1
no binding (tested: 0.01-100 ng/well) | – | – | – | – | – | – | 0.000428 | 1e-06 | B2
– | – | – | – | – | – | – | 0.0139 | 3e-05 | B3
no binding (tested: 0.01-100 ng/well) | – | – | – | – | – | – | – | – | B4
